The record followed here is patent publication US11643448B2 (JAPAN SCIENCE AND TECHNOLOGY AGENCY, priority 2013, dated 2023).

The test system of data set [1] is PC12 cells. Description: Cell viability after photo-oxygenation reaction in the presence of cells (WST-8). In kind it is cell-based, rat. As to conditions: light irradiation, regardless of presence or absence of Aβ (f and h). How it is done:
In a plate well in which the PC12 cells had been seeded, a phosphate buffer (pH 7.4, 50 μL) containing 20 μM of Aβ and a catalyst (Catalyst 1 in 4 μM or Catalyst 2 in 20 μM) was irradiated with 500 nm LED (light emitting diode) at 37° C. for 15 minutes. After the reaction, 50 μL of a HEPES buffer solution containing a 0.1% horse serum-containing medium was added to thereto (final Aβ concentration: 10 μM).
In order to achieve Aβ selective oxidation, a peptide having a high affinity for Aβ, D-[Lys-Leu-Val-Phe(4-phenyl)-Phe] (SEQ ID NO: 3) was identified, and was bonded to flavin as an affinity tag of Aβ (Catalyst 2 in FIG. 17). Catalyst 2 or riboflavin itself (Catalyst 1 in FIG. 17) was added to a phosphate buffer containing Aβ, and the mixture was irradiated with light in the presence of cells. 500 nm LED was used as a light source, and light was irradiated at 37° C. for 15 minutes. […] After the oxidation reaction, the cells were further incubated for 2 days, and the cell viability was determined thereafter (bar graph in FIG. 17). […] It is conceivable that the cells were damaged due to non-specific oxidation. On the other hand, when Catalyst 2 was used in the absence of Aβ under the condition j, 50% or more of the cells survived after the light irradiation. […]

The target in a further data set is Aβ (Homo sapiens, UniProt P05067). The experiment in a line: Oxidation of Aβ by catalyst under light irradiation. In kind it is biochemical. As to conditions: Catalyst 1 4 μM or Catalyst 2 20 μM, Aβ 20 μM, 500 nm LED, 37° C., 15 minutes.
Sequence of Aβ (P05067 672-713 limits assumed): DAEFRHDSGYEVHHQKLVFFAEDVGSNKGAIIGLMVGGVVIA
Data set [2] addresses T1, Aβ1-42 (Homo sapiens, UniProt P05067). Description: Thioflavin T fluorescence assay of aggregation. In kind it is biochemical. As to conditions: Aβ1-42 20 μM, 37° C., incubation time of 3 hours and 6 hours. How it is done:
A part of the reaction mixture (10 μL) was added to a 50 mM glycine-NaOH buffer (pH 8.5, 400 μL) containing thioflavin T (5 μM), and the resultant mixture was immediately mixed to measure a fluorescence intensity of thioflavin T. In the fluorescence intensity measurement, an excitation wavelength was 440 nm, and a fluorescence wavelength was 470 nm.
A phosphate buffer having the same composition was reacted with no irradiation to provide a sample “native Aβ” as a control. Aggregation of each sample was evaluated by thioflavin T assay (it is known that fluorescence intensity of thioflavin T corresponds to the amount of an aggregate being rich in β sheet structure) (FIG. 11).

Data set [3] deals with T1, Aβ1-42. The experiment in a line: Atomic force microscope analysis of fibril formation. Conditions: Aβ1-42 20 μM, 37° C. It counts as biochemical.
Protocol: A phosphate buffer (10 mM, pH 7.4) in which Aβ1-42 (20 μM) and riboflavin (4 μM) had been dissolved was incubated at 37° C. under irradiation with a fluorescent lamp (24 W, natural white, a distance between a light source and a reaction mixture was about 3 cm). A part of the reaction mixture (10 μL) was added on mica, incubated at room temperature for 3 minutes, washed with 20 μL of water, and air dried. The measurement was carried out using Nano Wizard II (JPK instruments AG, Berlin, Germany) in a tapping mode in air at room temperature.
The target in data set [4] is T1, Aβ1-42. The experiment in a line: Circular dichroism spectroscopy analysis. In kind it is biochemical. As to conditions: Aβ1-42 20 μM, 37° C.
Protocol: A phosphate buffer (10 mM, pH7.4) in which Aβ1-42 (20 μM) and riboflavin (4 μM) had been dissolved was incubated at 37° C. under irradiation with a fluorescent lamp (24 W, natural white, a distance between a light source and a reaction mixture was about 3 cm). A part of the reaction mixture was analyzed using Model 202SF (AVIV Biomedical, Inc., Lakewood, N.J.).
A further data set deals with native Aβ (Homo sapiens, UniProt P05067). Description: Inhibition of aggregation of native Aβ by oxidized Aβ (atomic force microscope analysis). In kind it is biochemical. As to conditions: native Aβ 20 μM with oxidized Aβ 20 μM, 37° C., 6 hours, compared with native Aβ alone. As for the experimental part:
A part of the reaction mixture (10 μL) was added on mica, incubated at room temperature for 3 minutes, washed with 20 μL of water, and air dried. The measurement was carried out using Nano Wizard II (JPK instruments AG, Berlin, Germany) in a tapping mode in air at room temperature.

Data set [5] concerns PC12 cells. As to conditions: 10 µM.
Protocol: PC12 cells, i.e., rat adrenal medulla-derived pheochromocytoma (purchased from RIKEN, Japan), were used. A phosphate buffer (pH 7.4) in which Aβ1-42 (20 μM) and riboflavin (4 μM) had been dissolved was incubated at room temperature under irradiation with a fluorescent lamp (24 W, natural white, a distance between a light source and a reaction mixture was about 3 cm). A part of the reaction mixture (50 μL) was added to a cell culture medium (50 μL) (final Aβ concentration was 10 μM), and the mixture was incubated at 37° C. for 48 hours under 5% CO2 atmosphere. Cells were observed and photographed using an inverted microscope DMI6000 B (Leica Microsystems GmbH, Wetzlar, Germany) equipped with a digital camera DFC360 FX (Leica Microsystems GmbH). A cell count reagent containing WST-8 (2-(2-methoxy-4-nitrophenyl)-3-(4-nitrophenyl)-5-(2,4-disulfonyl)-2H-tetrazolium, monosodium salt) (10 μL) was added to the mixture. The mixture was incubated at 37° C. for 6 hours under 5% CO2 atmosphere. Thereafter, absorbance at 450 nm (reference wavelength: 655 nm) was measured by iMark™ plate reader (Bio-Rad Laboratories, Inc., Hercules, Calif.).

Where two headings read alike, the source gives them in different places.

T1 sequence (P05067 672-713): as the sequence (P05067 672-713 limits assumed) above
Sequence of native Aβ (P05067 672-713): as the sequence (P05067 672-713 limits assumed) above

For the molecule `Cc1cc2nc3c(=O)[nH]c(=O)nc-3n(C[C@H](O)[C@H](O)[C@H](O)CO)c2cc1C` [Catalyst 1, riboflavin], the cell viability entry in the data set with PC12 cells [1] was “almost all cells died”. Moreover, the “extent of Aβ oxidation” value at Aβ was “about 60%”.
Regarding “oxidized Aβ: Aβ1-42 oxidized with riboflavin under light; Tyr10, His13, His14 and Met35 oxidized, one to eight oxygen atoms added”, the “fluorescence intensity of thioflavin T” value with Aβ1-42 [2] is recorded as “significantly lower than that of the native Aβ”. In the data set with Aβ1-42 [3], the fibril formation result is on record as “hardly”. For the same molecule, the “secondary structure by circular dichroism” value with Aβ1-42 [4] is “random coil structure was maintained”. Besides, the amyloid fibril content result with native Aβ is “significantly decreased”. This molecule showed a cell viability with PC12 cells [5] of at least 50%.
